These results are taken from the supplement of paper PMC10126150.

The series has as its system ATP. Nature of the series: switch fluorescence ratio, 500 uM ATP over buffer (Cy3 cluster intensity, sum of 5 cycles each) (fold (ratio)); higher = stronger signal-on switching upon ATP binding; sequences stand for … in TCGTCGGCAGCGTCAGATGTGTATAAGAGACAGTTTTTTTTTTTTTTTTTTTTTTTTT…TC. The following applies: aptamer strand: ATP DNA aptamer (quencher-CACCTGGGGGAGTATTGCGGAGGAAGG + anchor), 100 nM annealed; ATP concentration: 500 uM. In a few lines: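 The fluorescence ratio divides summed target-cycle Cy3 intensity by summed buffer-cycle Cy3 intensity for each cluster and is averaged per switch-domain sequence. Cy3-labelled switching-strand clusters on a modified Illumina MiSeq flow-cell were annealed to 100 nM quencher-labelled ATP aptamer, then imaged in selection buffer and again after 15 min with 500 uM ATP at 22 °C. Five such cycles were run, with NaOH stripping and re-annealing between them, and clusters outside 100-1000 RFU were excluded.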

± gives the standard deviation of the averaged measurements.
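Note: ATP exposure 15 min at 22 °C before imaging.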

On to TTTGTATACA, for which the switch fluorescence ratio is 1.01 ± 0.015.
With AAGAGTTGAC, the switch fluorescence ratio is 0.947 ± 0.059.
Then GACACTGGTA, with 1 ± 0.027; and TAGGTATTGA, with 0.987 ± 0.024; and ATTGATTC, with 0.9868 ± 0.0031.
With ATTCCTGGGC the figure was 1.03 ± 0.027; with GTGTTATCGG, 1 ± 0.045.
In the case of AGCGAGTTTT, the switch fluorescence ratio is 1.01 ± 0.012.
With GTTACTATTT, the switch fluorescence ratio came to 1.01 ± 0.019.
For the sequence GTGTTTACGA, the switch fluorescence ratio came out at 0.984 ± 0.027.
Consider TTTAGGACAG, for which the switch fluorescence ratio worked out at 1.01 ± 0.011.
Then TATCGTTCTC, with 0.989 ± 0.011.
Take TGGGGATCTG: the switch fluorescence ratio was determined as 0.985 ± 0.03.
For GGCGACAGAG, the switch fluorescence ratio was 1.04 ± 0.051.
With TGGGTGGATC the figure was 1.02 ± 0.056; with GAGGGTATTT, 0.978 ± 0.03.
For GTTAAGGGGC, the switch fluorescence ratio worked out at 0.996 ± 0.017.
Then GGGGTGCCCA, with 0.984 ± 0.044; and TGGGAAGGGA, with 1.2 ± 0.37; and AAGAATGTG, with 0.9474 ± 0.0022.
Regarding CACGCCTTAT, the switch fluorescence ratio stood at 1.034 ± 0.0043.
Then GGGGTGAAGG, with 1.01 ± 0.025; and AAGAAGTTGG, with 0.985 ± 0.038.
With GGGGGGGGTG the figure was 1.02 ± 0.068; with CGGGGTCATT, 0.979 ± 0.011.
As to ATGATCAACG, the switch fluorescence ratio is 0.999 ± 0.015.
TGGGATTATC: the switch fluorescence ratio is 1.02 ± 0.027.
With GGTGATAGGG the figure was 0.98 ± 0.036; with TGGGGTGCGG, 0.975 ± 0.026.
For CGAGGCATTA, the switch fluorescence ratio came to 4.8 ± 1.4.
With GGTCATGGTG, the switch fluorescence ratio was found to be 1.08 ± 0.024.
With ATGTGGTCTG, the switch fluorescence ratio is 0.9777 ± 0.0014.
Then TTGAAGTAGT, with 1.03 ± 0.1; and GCTGGTAAAG, with 0.972 ± 0.017; and CGAGAGGGAG, with 1.004 ± 0.0015.
Then TCCCGAATTT, with 1.02 ± 0.016.
Then TGGATGGGGC, with 1 ± 0.012; and GGCCTTGTG, with 0.962 ± 0.035.
Consider TTGGGAATA, for which the switch fluorescence ratio was found to be 0.988 ± 0.035.
With TTTATGGGTT, the switch fluorescence ratio came to 0.985 ± 0.018.
With TAGGTTGTCG the figure was 0.973 ± 0.077; with TTGGGGTGGA, 0.99 ± 0.018; with GGACTTGTTT, 0.984 ± 0.022.
For GGCGGAAGTA, the switch fluorescence ratio came to 1 ± 0.019.
Turning to GTTGATTCTA, the switch fluorescence ratio came out at 0.988 ± 0.034.
Turning to TGGCCTAATG, the switch fluorescence ratio stood at 0.965 ± 0.013.
Then AGGGAAAATG, with 0.967 ± 0.033; and GCAATGGCAT, with 0.987 ± 0.03.
AGTATGACGG: the switch fluorescence ratio is 0.986 ± 0.036.
With AAGATTTTTG the figure was 1.01 ± 0.041; with TGTGGGGATA, 0.9904 ± 0.0011; with CGGTGTACTG, 0.992 ± 0.013.
With TCGTTTGATT the figure was 1.01 ± 0.019; with CCTGAGAGAG, 1.034 ± 0.0052.
With GATCGAAGTT the figure was 0.984 ± 0.033.
As to GGGGCTATCA, the switch fluorescence ratio came out at 0.9712 ± 0.0081.
Then AATAGAGGGA, with 0.977 ± 0.045.
Regarding ACGGTGGAGA, the switch fluorescence ratio was found to be 1.05 ± 0.015.
For AAAGGTGGTA, the switch fluorescence ratio amounted to 1.02 ± 0.066.
With TGCGGGGTTT the figure was 1.02 ± 0.054; with GCAGTCTGCC, 1.02 ± 0.07.
With TTGGGAGCTG the figure was 1.021 ± 0.0068; with GGGTGGTCGG, 0.978 ± 0.032.
Then TAGTGTGTAT, with 0.9516 ± 0.0088; and GTTTTTGAAT, with 0.992 ± 0.033.
In the case of GTGTAAGTAG, the switch fluorescence ratio is 0.997 ± 0.024.
With TGGCGTCTTA the figure was 0.9875 ± 0.0033; with TTTGACTTGT, 1.005 ± 0.0045; with TGTCTTTTGA, 1.003 ± 0.0059.
With GGTTTTGCTG the figure was 1.05 ± 0.053; with ATTCTGTACG, 1.05 ± 0.023; with TCAGCCAGC, 1.06 ± 0.012.
Then AGGGGGCTGG, with 0.977 ± 0.018.
On to GATTGCTTTC, for which the switch fluorescence ratio turned out to be 1.02 ± 0.023.
With GAAGGGGGAA the figure was 1.02 ± 0.019; with TGCATCAGCT, 1.03 ± 0.046.
CTAAACCTGG: the switch fluorescence ratio was found to be 1.13 ± 0.034.
With TCATCTGTGC the figure was 1.07 ± 0.029; with TTTTGAGGGT, 0.99 ± 0.023.
For the sequence ATTGCATTTT, the switch fluorescence ratio was found to be 1.28 ± 0.43.
Then GAGGGAGCGT, with 1.002 ± 0.0083; and CGTTGAGTTG, with 0.986 ± 0.032; and CCTTTTGGCT, with 0.964 ± 0.014.
With AATCTGGGTA the figure was 0.991 ± 0.016; with AAGTTTAATT, 1.02 ± 0.012; with GTGGGTTGTA, 1.01 ± 0.05.
For ATGCATATCG, the switch fluorescence ratio came out at 1 ± 0.036.
With TTTAATTGCG, the switch fluorescence ratio came out at 0.993 ± 0.012.
With TTTTAGATCG the figure was 0.997 ± 0.016; with GGTGGATGGG, 0.987 ± 0.014.
For GTCTAAAATC, the switch fluorescence ratio is 0.978 ± 0.038.
TGTGATAATG: the switch fluorescence ratio was found to be 0.9831 ± 0.0017.
Consider TCAGCGCTTT, for which the switch fluorescence ratio stood at 0.977 ± 0.032.
With TGAACTTTTA the figure was 0.965 ± 0.061; with CTTAGTCAGC, 1.06 ± 0.099; with GTGTATTGGG, 0.993 ± 0.025.
Then GGTTTTATGT, with 0.984 ± 0.032.
For the sequence ATAATTCATG, the switch fluorescence ratio amounted to 0.981 ± 0.029.
Then TGCCGGGGTC, with 1 ± 0.048; and ATTCGTATGT, with 1.03 ± 0.03; and ACAGGTTTGC, with 1.007 ± 0.0039.
Then CTGGGGACGT, with 0.9821 ± 0.0081; and TGCAACACAT, with 1.03 ± 0.029.
With CGATAGGCGT the figure was 0.9927 ± 0.0032; with TTTGGTTTT, 0.988 ± 0.027; with TGGTCTAGGA, 1.01 ± 0.011.
With TATATTTGGG, the switch fluorescence ratio worked out at 0.998 ± 0.034.
For TCGAGGGGTC, the switch fluorescence ratio worked out at 1.06 ± 0.075.
Then TTCGCAGGGT, with 1.039 ± 0.0029; and CGGGTAAGGG, with 1.01 ± 0.04; and GAGCTGAATG, with 0.9518 ± 0.0063.
In the case of TGTAAGGACT, the switch fluorescence ratio is 1.01 ± 0.038.
With GCTGTATGCA the figure was 0.976 ± 0.012; with ACTATTCGGC, 0.982 ± 0.02; with TGCGATTTAC, 1.15 ± 0.024.
Then TCTGGCAATG, with 1.46 ± 0.061.
Turning to TGATAATTTT, the switch fluorescence ratio stood at 1 ± 0.039.
With CAGTGTATTT the figure was 1.01 ± 0.038.
For TCAAATAATC, the switch fluorescence ratio was 1.01 ± 0.03.
On to GATGAGAATT, for which the switch fluorescence ratio was 0.98912 ± 0.00024.
